This is an account of results in patent US20180362668A1 (JIANGSU ALPHAMAB BIOPHARMACEUTICALS, published 2018).

Data set [1] deals with the molecule itself. In words: non-reducing SDS-PAGE densitometry of Protein A-purified co-transfection product; chain A:chain B vectors 1:1. An excerpt: The cotransfection ratio of recombinant expression vector of the chain A to that of the chain B was 1:1.
Data set [2] concerns the molecule itself. In words: non-reducing SDS-PAGE densitometry of Protein A-purified co-transfection product; chain A:chain B vectors 4:1. From the text:
(§1) The cotransfection ratio of recombinant expression vector of the chain A to that of the chain B was 4:1, 1:1 and 1:4.

Data set [3] concerns the molecule itself. In words: non-reducing SDS-PAGE densitometry of Protein A-purified co-transfection product; chain A:chain B vectors 1:1.
From the text: as §1
This is another data set of the same source.

Data set [4] deals with the molecule itself. In words: non-reducing SDS-PAGE densitometry of Protein A-purified co-transfection product; chain A:chain B vectors 1:4.
From the text: as §1

B1: ScFv-Fc fusion protein chain A with Y349C + T366W + K409A + L368E (Fc fusion)
chain: EVQLLESGGGVVQPGRSLRLSCIASGFTFSSYPMTWVRQAPGKGLEWVASISYDGSYKYKADSMKGRLTISRDNSKNTLYLEMNSLTAEDTAVYYCARTAFFNAYDFWGQGTLVTVSSASTKGPSVGGGGSGGGGSEIVMTQSPATLSVSPGERATLSCRASQSVRSNLAWYQQKPGQAPRLLIYAASTRATGIPARFSGSGSGTEFTLTISSLQSEDFAVYYCQQYNEWFRTSGQGTKVEIKRDKTHTCPPCPAPELLGGPSVFLFPPKPKDTLMISRTPEVTCVVVDVSHENPEVKFNWYVDGVEVHNAKTKPREEQYNSTYRVVSVLTVLHQDWLNGKEYKCKVSNKALPAPIEKTISKAKGQPREPQVCTLPPSRDELTKNQVSLWCEVKGFYPSDIAVEWESNGQPENNYKTTPPVLDSDGSFFLYSALTVDKSRWQQGNVFSCSVMHEALHNHYTQKSLSLSPGK
notes: Positions are EU index; also called combination 9 chain A
Regarding B1, the “ScFv-Fc homodimer (%)” value in data set [1] was determined as 39%.

B2: ScFv-Fc fusion protein chain A with T366W + K409A + K392D (Fc fusion)
chain: EVQLLESGGGVVQPGRSLRLSCIASGFTFSSYPMTWVRQAPGKGLEWVASISYDGSYKYKADSMKGRLTISRDNSKNTLYLEMNSLTAEDTAVYYCARTAFFNAYDFWGQGTLVTVSSASTKGPSVGGGGSGGGGSEIVMTQSPATLSVSPGERATLSCRASQSVRSNLAWYQQKPGQAPRLLIYAASTRATGIPARFSGSGSGTEFTLTISSLQSEDFAVYYCQQYNEWFRTSGQGTKVEIKRDKTHTCPPCPAPELLGGPSVFLFPPKPKDTLMISRTPEVTCVVVDVSHENPEVKFNWYVDGVEVHNAKTKPREEQYNSTYRVVSVLTVLHQDWLNGKEYKCKVSNKALPAPIEKTISKAKGQPREPQVYTLPPSRDELTKNQVSLWCLVKGFYPSDIAVEWESNGQPENNYDTTPPVLDSDGSFFLYSALTVDKSRWQQGNVFSCSVMHEALHNHYTQKSLSLSPGK
notes: Positions are EU index; also called combination 10 chain A
Regarding B2, the “ScFv-Fc homodimer (%)” value in data set [2] was 39%; in data set [3], 7%; in data set [4] it was under 1%.

B3: ScFv-Fc fusion protein chain A with T366W + K409A (Fc fusion)
chain: EVQLLESGGGVVQPGRSLRLSCIASGFTFSSYPMTWVRQAPGKGLEWVASISYDGSYKYKADSMKGRLTISRDNSKNTLYLEMNSLTAEDTAVYYCARTAFFNAYDFWGQGTLVTVSSASTKGPSVGGGGSGGGGSEIVMTQSPATLSVSPGERATLSCRASQSVRSNLAWYQQKPGQAPRLLIYAASTRATGIPARFSGSGSGTEFTLTISSLQSEDFAVYYCQQYNEWFRTSGQGTKVEIKRDKTHTCPPCPAPELLGGPSVFLFPPKPKDTLMISRTPEVTCVVVDVSHENPEVKFNWYVDGVEVHNAKTKPREEQYNSTYRVVSVLTVLHQDWLNGKEYKCKVSNKALPAPIEKTISKAKGQPREPQVYTLPPSRDELTKNQVSLWCLVKGFYPSDIAVEWESNGQPENNYKTTPPVLDSDGSFFLYSALTVDKSRWQQGNVFSCSVMHEALHNHYTQKSLSLSPGK
notes: Positions are EU index; also called combination 11 chain A
Regarding B3, the “ScFv-Fc homodimer (%)” value in data set [2] worked out at 52%; in data set [3] it was 15%; in data set [4], 11%.

B4: ScFv-Fc fusion protein chain A with Y349C + T366W + K409A + Q347R (Fc fusion)
chain: EVQLLESGGGVVQPGRSLRLSCIASGFTFSSYPMTWVRQAPGKGLEWVASISYDGSYKYKADSMKGRLTISRDNSKNTLYLEMNSLTAEDTAVYYCARTAFFNAYDFWGQGTLVTVSSASTKGPSVGGGGSGGGGSEIVMTQSPATLSVSPGERATLSCRASQSVRSNLAWYQQKPGQAPRLLIYAASTRATGIPARFSGSGSGTEFTLTISSLQSEDFAVYYCQQYNEWFRTSGQGTKVEIKRDKTHTCPPCPAPELLGGPSVFLFPPKPKDTLMISRTPEVTCVVVDVSHENPEVKFNWYVDGVEVHNAKTKPREEQYNSTYRVVSVLTVLHQDWLNGKEYKCKVSNKALPAPIEKTISKAKGQPREPRVCTLPPSRDELTKNQVSLWCLVKGFYPSDIAVEWESNGQPENNYKTTPPVLDSDGSFFLYSALTVDKSRWQQGNVFSCSVMHEALHNHYTQKSLSLSPGK
notes: Positions are EU index; also called combination 8 chain A
B4: in data set [1], the “ScFv-Fc homodimer (%)” value was found to be 21%.

B5: ScFv-Fc fusion protein chain A with Y349C + T366W + F405K + Q347R (Fc fusion)
chain: EVQLLESGGGVVQPGRSLRLSCIASGFTFSSYPMTWVRQAPGKGLEWVASISYDGSYKYKADSMKGRLTISRDNSKNTLYLEMNSLTAEDTAVYYCARTAFFNAYDFWGQGTLVTVSSASTKGPSVGGGGSGGGGSEIVMTQSPATLSVSPGERATLSCRASQSVRSNLAWYQQKPGQAPRLLIYAASTRATGIPARFSGSGSGTEFTLTISSLQSEDFAVYYCQQYNEWFRTSGQGTKVEIKRDKTHTCPPCPAPELLGGPSVFLFPPKPKDTLMISRTPEVTCVVVDVSHENPEVKFNWYVDGVEVHNAKTKPREEQYNSTYRVVSVLTVLHQDWLNGKEYKCKVSNKALPAPIEKTISKAKGQPREPRVCTLPPSRDELTKNQVSLWCLVKGFYPSDIAVEWESNGQPENNYKTTPPVLDSDGSFKLYSKLTVDKSRWQQGNVFSCSVMHEALHNHYTQKSLSLSPGK
notes: Positions are EU index; also called combination 6 chain A
Turning to B5, the “ScFv-Fc homodimer (%)” value in data set [1] was determined as 14%.

B6: ScFv-Fc fusion protein chain A with Y349C + T366W + K409A + K360E + Q347E (Fc fusion)
chain: EVQLLESGGGVVQPGRSLRLSCIASGFTFSSYPMTWVRQAPGKGLEWVASISYDGSYKYKADSMKGRLTISRDNSKNTLYLEMNSLTAEDTAVYYCARTAFFNAYDFWGQGTLVTVSSASTKGPSVGGGGSGGGGSEIVMTQSPATLSVSPGERATLSCRASQSVRSNLAWYQQKPGQAPRLLIYAASTRATGIPARFSGSGSGTEFTLTISSLQSEDFAVYYCQQYNEWFRTSGQGTKVEIKRDKTHTCPPCPAPELLGGPSVFLFPPKPKDTLMISRTPEVTCVVVDVSHENPEVKFNWYVDGVEVHNAKTKPREEQYNSTYRVVSVLTVLHQDWLNGKEYKCKVSNKALPAPIEKTISKAKGQPREPEVCTLPPSRDELTENQVSLWCLVKGFYPSDIAVEWESNGQPENNYKTTPPVLDSDGSFFLYSALTVDKSRWQQGNVFSCSVMHEALHNHYTQKSLSLSPGK
notes: Positions are EU index; also called combination 7 chain A
Consider B6, for which the “ScFv-Fc homodimer (%)” value in data set [1] was determined as 24%.

B7: ScFv-Fc fusion protein chain A with T366W + K409A + Y349D (Fc fusion)
chain: EVQLLESGGGVVQPGRSLRLSCIASGFTFSSYPMTWVRQAPGKGLEWVASISYDGSYKYKADSMKGRLTISRDNSKNTLYLEMNSLTAEDTAVYYCARTAFFNAYDFWGQGTLVTVSSASTKGPSVGGGGSGGGGSEIVMTQSPATLSVSPGERATLSCRASQSVRSNLAWYQQKPGQAPRLLIYAASTRATGIPARFSGSGSGTEFTLTISSLQSEDFAVYYCQQYNEWFRTSGQGTKVEIKRDKTHTCPPCPAPELLGGPSVFLFPPKPKDTLMISRTPEVTCVVVDVSHENPEVKFNWYVDGVEVHNAKTKPREEQYNSTYRVVSVLTVLHQDWLNGKEYKCKVSNKALPAPIEKTISKAKGQPREPQVDTLPPSRDELTKNQVSLWCLVKGFYPSDIAVEWESNGQPENNYKTTPPVLDSDGSFFLYSALTVDKSRWQQGNVFSCSVMHEALHNHYTQKSLSLSPGK
notes: Positions are EU index; it is not used here; also called combination 12 chain A
For B7, the “ScFv-Fc homodimer (%)” value amounted to 48% in data set [2], 14% in data set [3] and 9% in data set [4].

B8: ScFv-Fc fusion protein chain A with Y349C + T366W + F405K + K360E + Q347E (Fc fusion)
chain: EVQLLESGGGVVQPGRSLRLSCIASGFTFSSYPMTWVRQAPGKGLEWVASISYDGSYKYKADSMKGRLTISRDNSKNTLYLEMNSLTAEDTAVYYCARTAFFNAYDFWGQGTLVTVSSASTKGPSVGGGGSGGGGSEIVMTQSPATLSVSPGERATLSCRASQSVRSNLAWYQQKPGQAPRLLIYAASTRATGIPARFSGSGSGTEFTLTISSLQSEDFAVYYCQQYNEWFRTSGQGTKVEIKRDKTHTCPPCPAPELLGGPSVFLFPPKPKDTLMISRTPEVTCVVVDVSHENPEVKFNWYVDGVEVHNAKTKPREEQYNSTYRVVSVLTVLHQDWLNGKEYKCKVSNKALPAPIEKTISKAKGQPREPEVCTLPPSRDELTENQVSLWCLVKGFYPSDIAVEWESNGQPENNYKTTPPVLDSDGSFKLYSKLTVDKSRWQQGNVFSCSVMHEALHNHYTQKSLSLSPGK
notes: Positions are EU index; also called combination 5 chain A
B8: the “ScFv-Fc homodimer (%)” value in data set [1] came to 14%.

B9: ScFv-Fc fusion protein chain A with T366W + K409A + Y349D + S354D (Fc fusion)
chain: EVQLLESGGGVVQPGRSLRLSCIASGFTFSSYPMTWVRQAPGKGLEWVASISYDGSYKYKADSMKGRLTISRDNSKNTLYLEMNSLTAEDTAVYYCARTAFFNAYDFWGQGTLVTVSSASTKGPSVGGGGSGGGGSEIVMTQSPATLSVSPGERATLSCRASQSVRSNLAWYQQKPGQAPRLLIYAASTRATGIPARFSGSGSGTEFTLTISSLQSEDFAVYYCQQYNEWFRTSGQGTKVEIKRDKTHTCPPCPAPELLGGPSVFLFPPKPKDTLMISRTPEVTCVVVDVSHENPEVKFNWYVDGVEVHNAKTKPREEQYNSTYRVVSVLTVLHQDWLNGKEYKCKVSNKALPAPIEKTISKAKGQPREPQVDTLPPDRDELTKNQVSLWCLVKGFYPSDIAVEWESNGQPENNYKTTPPVLDSDGSFFLYSALTVDKSRWQQGNVFSCSVMHEALHNHYTQKSLSLSPGK
notes: Positions are EU index; also called combination 13 chain A
B9: the figures for the “ScFv-Fc homodimer (%)” value in data set [2], in data set [3] and in data set [4] were 37%, 10% and 2%, respectively.

B10: Fc protein chain B with D356C + T366S + L368A + Y407V + K360E + Q347E (other)
chain: DKTHTCPPCPAPELLGGPSVFLFPPKPKDTLMISRTPEVTCVVVDVSHEDPEVKFNWYVDGVEVHNAKTKPREEQYNSTYRVVSVLTVLHQDWLNGKEYKCKVSNKALPAPIEKTISKAKGQPREPEVYTLPPSRCELTENQVSLSCAVKGFYPSDIAVEWESNGQPENNYKTTPPVLDSDGSFFLVSKLTVDKSRWQQGNVFSCSVMHEALHNHYTQKSLSLSPGK
notes: also called combination 6 chain B
In the case of B10, the “Proportion of Fc homodimer (%)” value in data set [1] was found to be 24%.

B11: Fc protein chain B with D356C + T366S + L368A + Y407V + F405K + K360E + Q347E (other)
chain: DKTHTCPPCPAPELLGGPSVFLFPPKPKDTLMISRTPEVTCVVVDVSHEDPEVKFNWYVDGVEVHNAKTKPREEQYNSTYRVVSVLTVLHQDWLNGKEYKCKVSNKALPAPIEKTISKAKGQPREPEVYTLPPSRCELTENQVSLSCAVKGFYPSDIAVEWESNGQPENNYKTTPPVLDSDGSFKLVSKLTVDKSRWQQGNVFSCSVMHEALHNHYTQKSLSLSPGK
notes: also called combination 8 chain B
B11: the “Proportion of Fc homodimer (%)” value in data set [1] was determined as 8%.

B12: Fc protein chain B with D356C + T366S + L368A + Y407V + F405K + Q347R (other)
chain: DKTHTCPPCPAPELLGGPSVFLFPPKPKDTLMISRTPEVTCVVVDVSHEDPEVKFNWYVDGVEVHNAKTKPREEQYNSTYRVVSVLTVLHQDWLNGKEYKCKVSNKALPAPIEKTISKAKGQPREPRVYTLPPSRCELTKNQVSLSCAVKGFYPSDIAVEWESNGQPENNYKTTPPVLDSDGSFKLVSKLTVDKSRWQQGNVFSCSVMHEALHNHYTQKSLSLSPGK
notes: also called combination 7 chain B
Take B12: in data set [1], the “Proportion of Fc homodimer (%)” value was 12%.
